The values below come from US20230340146A1 (US Dept. of Health and Human Services, published 2023).

For test [1], the target named is T1, human GPC1 on cells (T3M4, KLM1, H8, 2B9) (human) (UniProt P35052).
T1 sequence (looked up): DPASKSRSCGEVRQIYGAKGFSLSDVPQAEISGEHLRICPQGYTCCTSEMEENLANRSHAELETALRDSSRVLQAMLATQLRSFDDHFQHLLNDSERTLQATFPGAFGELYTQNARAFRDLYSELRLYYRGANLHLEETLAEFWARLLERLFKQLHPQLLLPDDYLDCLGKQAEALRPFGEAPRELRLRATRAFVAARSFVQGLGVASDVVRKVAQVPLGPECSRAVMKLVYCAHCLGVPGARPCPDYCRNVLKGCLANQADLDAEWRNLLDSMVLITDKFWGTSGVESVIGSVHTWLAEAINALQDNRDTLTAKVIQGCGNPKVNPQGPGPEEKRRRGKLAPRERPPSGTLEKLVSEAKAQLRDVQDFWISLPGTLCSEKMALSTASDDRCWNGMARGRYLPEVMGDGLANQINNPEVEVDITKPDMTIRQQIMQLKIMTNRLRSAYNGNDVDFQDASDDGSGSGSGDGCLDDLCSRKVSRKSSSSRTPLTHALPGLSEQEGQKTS
The experiment in a line: flow cytometry on T3M4 pancreatic cancer cells, non-specific control IgG, goat anti-mouse IgG-PE. For orientation: A flow cytometer gives signals particle by particle.

For test [2], the target named is T1, human GPC1 on cells (T3M4, KLM1, H8, 2B9) (human). Kind of test: cell-based or functional assay.
The target of test [3] is T2, human glypican-4 (GPC4) (human, UniProt O75487 19-529, limits assumed).
T2 construct: Named through 'human GPC1 through GPC6' in the methods; also called human GPC4; other human glypican members
T2 sequence (looked up): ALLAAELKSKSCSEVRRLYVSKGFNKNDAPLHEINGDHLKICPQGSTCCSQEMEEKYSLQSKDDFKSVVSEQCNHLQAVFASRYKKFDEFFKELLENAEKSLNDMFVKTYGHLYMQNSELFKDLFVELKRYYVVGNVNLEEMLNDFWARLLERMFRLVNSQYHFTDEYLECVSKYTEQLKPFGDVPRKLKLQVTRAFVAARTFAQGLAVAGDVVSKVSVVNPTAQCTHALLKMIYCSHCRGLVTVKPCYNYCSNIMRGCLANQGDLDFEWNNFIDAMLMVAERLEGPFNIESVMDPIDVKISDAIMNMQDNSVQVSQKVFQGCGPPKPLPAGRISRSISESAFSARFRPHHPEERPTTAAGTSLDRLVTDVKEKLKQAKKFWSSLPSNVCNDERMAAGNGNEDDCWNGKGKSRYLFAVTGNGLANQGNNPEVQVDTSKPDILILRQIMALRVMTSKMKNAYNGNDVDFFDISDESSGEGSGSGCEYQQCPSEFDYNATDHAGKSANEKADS
The experiment in a line: ELISA on human GPC4, anti-FLAG detection. The procedure: (§1) Mouse hybridoma supernatant containing 1 µg/ml of each mAb was incubated with plates coated with human GPC1 through GPC6 purchased from R&D Systems. Binding was detected with a goat anti-mouse IgG conjugated with horseradish peroxidase (HRP) (Jackson ImmunoResearch). […] Binding was detected with an anti-FLAG HRP-conjugated antibody (Sigma-Aldrich). […] Recombinant human GPC1-hFc protein at concentrations of 5 µg/ml and 1 µg/ml were then added to the plate.
Background: An ELISA detects its analyte on a solid surface through an enzyme-linked reagent.

For another test, the target named is T3, mouse GPC1 protein (mouse, UniProt Q9QZF2 24-529, limits assumed).
T3 sequence (looked up): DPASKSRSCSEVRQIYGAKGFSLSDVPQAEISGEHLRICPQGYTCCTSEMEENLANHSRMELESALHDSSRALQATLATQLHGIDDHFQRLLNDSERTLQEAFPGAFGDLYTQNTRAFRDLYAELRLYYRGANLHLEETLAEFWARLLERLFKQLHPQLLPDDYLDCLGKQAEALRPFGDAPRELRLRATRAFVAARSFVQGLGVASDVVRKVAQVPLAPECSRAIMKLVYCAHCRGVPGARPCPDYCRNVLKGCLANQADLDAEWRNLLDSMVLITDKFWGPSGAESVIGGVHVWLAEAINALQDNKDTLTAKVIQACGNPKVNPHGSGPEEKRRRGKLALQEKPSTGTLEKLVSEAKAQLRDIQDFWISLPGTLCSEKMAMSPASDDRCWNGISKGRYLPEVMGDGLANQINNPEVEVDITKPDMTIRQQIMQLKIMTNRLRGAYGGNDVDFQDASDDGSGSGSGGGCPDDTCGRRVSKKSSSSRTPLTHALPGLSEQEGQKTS
The experiment in a line: monoclonal phage ELISA on plate-coated mouse GPC1.

The next test deals with T4, GPC1 peptide 15.
T4 peptide: LYYRGANLHLEETLAEFW
Kind of test: ELISA on peptides of the GPC1 peptide library.

The next test concerns the target T5, GPC1 peptide 14.
T5 peptide: FRDLYSELRLYYRGANLH
Kind of test: ELISA on peptides of the GPC1 peptide library.

For test [4], the target named is T6, recombinant human GPC1-hFc protein (human, UniProt P35052 24-530, limits assumed).
T6 construct: Analyte in the Octet measurement of D4; not shown: human Fc (hFc)
T6 sequence (looked up): T1 sequence (looked up)
Kind of test: Octet (BLI), His-tagged D4 on Ni-NTA biosensor, serially diluted human GPC1-hFc in solution. The procedure: (§2) Data analysis was performed using the FortéBio analysis software.
(In general: Biolayer interferometry detects binding as a change in optical thickness at a sensor tip.)

Test [5] concerns the target T7, human glypican-5 (GPC5) (human, UniProt P78333 25-551, limits assumed).
T7 construct: Named through 'human GPC1 through GPC6' in the methods; also called human GPC5; other human glypican members
T7 sequence (looked up): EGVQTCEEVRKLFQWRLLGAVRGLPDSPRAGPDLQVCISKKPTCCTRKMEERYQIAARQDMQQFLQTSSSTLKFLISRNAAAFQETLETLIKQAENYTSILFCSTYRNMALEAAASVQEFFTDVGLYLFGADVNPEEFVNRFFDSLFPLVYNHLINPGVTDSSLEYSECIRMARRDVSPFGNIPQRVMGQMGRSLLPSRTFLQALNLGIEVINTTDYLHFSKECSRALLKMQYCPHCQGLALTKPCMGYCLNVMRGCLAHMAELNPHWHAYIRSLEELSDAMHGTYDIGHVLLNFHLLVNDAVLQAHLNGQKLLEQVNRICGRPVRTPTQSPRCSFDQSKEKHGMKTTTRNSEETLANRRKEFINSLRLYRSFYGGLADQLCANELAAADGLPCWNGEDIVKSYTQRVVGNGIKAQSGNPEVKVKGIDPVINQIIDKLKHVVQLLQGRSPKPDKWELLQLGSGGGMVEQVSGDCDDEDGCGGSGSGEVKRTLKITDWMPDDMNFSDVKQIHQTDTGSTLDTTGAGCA
The experiment in a line: monoclonal phage ELISA on plate-coated glypicans.

Test [6] concerns the target T8, human glypican-3 (GPC3) (human, UniProt P51654 25-559, limits assumed).
T8 construct: Named through 'human GPC1 through GPC6' in the methods; also called human GPC3; other human glypican members
Kind of test: monoclonal phage ELISA on plate-coated glypicans.

The target in test [7] is T9, human glypican-6 (GPC6) (human, UniProt Q9Y625 24-529, limits assumed).
T9 construct: Named through 'human GPC1 through GPC6' in the methods; also called human GPC6; other human glypican members
T9 sequence (looked up): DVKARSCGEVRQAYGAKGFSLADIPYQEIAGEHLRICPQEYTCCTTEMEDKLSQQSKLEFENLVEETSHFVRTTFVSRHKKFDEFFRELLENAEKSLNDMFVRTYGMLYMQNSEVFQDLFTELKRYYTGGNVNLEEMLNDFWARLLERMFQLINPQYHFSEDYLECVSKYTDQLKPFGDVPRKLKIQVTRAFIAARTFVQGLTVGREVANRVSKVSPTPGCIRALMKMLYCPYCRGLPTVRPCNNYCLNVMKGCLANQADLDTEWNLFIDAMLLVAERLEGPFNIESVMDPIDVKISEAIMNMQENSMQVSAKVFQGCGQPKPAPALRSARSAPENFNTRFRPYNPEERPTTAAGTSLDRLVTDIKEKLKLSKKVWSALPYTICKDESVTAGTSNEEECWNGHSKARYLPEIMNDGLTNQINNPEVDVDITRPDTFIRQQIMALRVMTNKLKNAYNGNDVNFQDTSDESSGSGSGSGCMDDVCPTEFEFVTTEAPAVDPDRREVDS
Kind of test: monoclonal phage ELISA on plate-coated glypicans.

Test [8] has as its target T10, human glypican-2 (GPC2) (human, UniProt Q8N158 24-554, limits assumed).
T10 construct: Named through 'human GPC1 through GPC6' in the methods; also called human GPC2; other human glypican members
T10 sequence (looked up): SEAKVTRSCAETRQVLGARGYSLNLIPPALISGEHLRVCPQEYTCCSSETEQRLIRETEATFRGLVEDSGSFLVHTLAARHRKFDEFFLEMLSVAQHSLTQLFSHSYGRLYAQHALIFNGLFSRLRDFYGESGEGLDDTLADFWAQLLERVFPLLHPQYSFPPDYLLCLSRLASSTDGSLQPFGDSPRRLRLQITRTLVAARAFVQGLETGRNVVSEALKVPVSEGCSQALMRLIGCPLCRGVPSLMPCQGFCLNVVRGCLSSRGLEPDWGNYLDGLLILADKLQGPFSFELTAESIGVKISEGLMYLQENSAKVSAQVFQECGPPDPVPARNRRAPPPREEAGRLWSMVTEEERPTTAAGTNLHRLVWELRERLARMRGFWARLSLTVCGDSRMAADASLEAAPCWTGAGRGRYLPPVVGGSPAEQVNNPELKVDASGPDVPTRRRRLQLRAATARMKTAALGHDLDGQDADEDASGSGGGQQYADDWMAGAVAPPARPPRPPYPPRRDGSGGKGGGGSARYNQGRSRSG
Kind of test: monoclonal phage ELISA on plate-coated glypicans.

The next test addresses T11, His-tagged GPC1 protein (human, UniProt P35052 24-530, limits assumed).
T11 construct: Immobilised on a Ni-NTA biosensor for the Octet measurement of HM2; also called human GPC1; not shown: His tag
T11 sequence (looked up): T1 sequence (looked up)
Kind of test: Octet (BLI), His-tagged GPC1 on Ni-NTA biosensor, HM2 in solution. How it is done:
as §2

For test [9], the target named is T2, human glypican-4 (GPC4). The experiment in a line: ELISA, plate coated with human GPC4. How it is done: as §1
The target of another test is T12, GPC1 peptide 53.
T12 peptide: DGCLDDLCSRKVSRKSSS
The experiment in a line: ELISA on peptides of the GPC1 peptide library.

In test [10] the target is T7, human glypican-5 (GPC5). Kind of test: ELISA on plate-coated human glypicans, goat anti-mouse IgG-HRP.
Test [11] deals with T8, human glypican-3 (GPC3). Described as above.
In test [12] the target is T9, human glypican-6 (GPC6). Described as above.
Test [13] concerns the target T10, human glypican-2 (GPC2). The test is described as above.

For Neg ctrl (antibody), the MFI in test [1] turned out to be 7.

B1: D4-IgG4 hinge-CD28 TM CAR (protein)
chain: HMQVQLVESGGGLVQPGGSLRLSCVASGYSYSIGYMAWFRQAPGKERAWVASRYTGDGGAVFDDAVKGRFTTSQESAGNTFDLQMDSLKPEDTAMYYCAAKGPGFGRWEYWGRGTQVTVSSTSESKYGPPCPPCPFWVLVVVGGVLACYSLLVTVAFIIFWVKRGRKKLLYIFKQPFMRPVQTTQEEDGCSCRFPEEEEGGCELRVKFSRSADAPAYQQGQNQLYNELNLGRREEYDVLDKRRGRDPEMGGKPRRKNPQEGLYNELQKDKMAEAYSEIGMKGERRRGKGHDGLYQGLSTATKDTYDALHMQALPPR
B1: in [2], the cytolytic activity against T3M4 cells, difference to D4-IgG4 hinge-CD8 TM CAR T cells is 10% and the killing ability at high E:T ratio stood at 91.6%.

B2: D4 camel single-domain antibody (VHH)
VHH: QVQLVESGGGLVQPGGSLRLSCVASGYSYSIGYMAWFRQAPGKERAWVASRYTGDGGAVFDDAVKGRFTTSQESAGNTFDLQMDSLKPEDTAMYYCAAKGPGFGRWEYWGRGTQVTVSS
notes: the methods describe D4 at 1 ug/ml detected with anti-FLAG; also called D4 antibody; D4 clone; not shown: FLAG and His tags (detected with anti-FLAG; 'His-tagged D4')
With B2, the binding result with human glypican-4 (GPC4) [3] is on record as “no binding (tested: 1 µg/ml)”; with mouse GPC1 protein, “binds”; with GPC1 peptide 15, “binds”; with GPC1 peptide 14 it was “binds”; with human glypican-5 (GPC5) [5], “no binding (tested: 1 µg/ml (per paragraph 203; not on the sheet))”; with human glypican-3 (GPC3) [6], “no binding (tested: 1 µg/ml (per paragraph 203; not on the sheet))”. For the same molecule, the binding result with human glypican-6 (GPC6) [7] and in the test with human glypican-2 (GPC2) [8] was “no binding (tested: 1 µg/ml (per paragraph 203; not on the sheet))” each time. Further, the Kd in test [4] came to 0.7 nM.

B3: HM2 mouse monoclonal antibody (antibody, V domains shown)
VH: EVQLQQSGAELVRPGASVKLSCTASGFNIKDDYMHWVKQRPEQGLEWIGWIDPENGDTEYASKFQGKATITADTSSNTAYLQLSSLTSEDTAVYYCTRSSVGYWGQGTTLTVSS
VL: DVVMTQTPLSLPVSLGDQASISCRSSQSLVHSNGNTYLHWYLQKPGQSPKLLIYKVSNRFSGVPDRFSGSGSGTYFTLKISRVEAEDLGVYFCSQRTHVPYTFGGGTKLEIK
notes: Mouse monoclonal antibody (detected with goat anti-mouse IgG); also called HM2 mAb; HM2 clone
B3: the Kd with His-tagged GPC1 protein was found to be 0.4 nM. The binding result with human glypican-4 (GPC4) [9] was “no binding (tested: 1 µg/ml)”; with GPC1 peptide 53 it was “binds”; with human glypican-5 (GPC5) [10], “no binding (tested: 1 µg/ml)”; in the test with human glypican-3 (GPC3) [11], “no binding (tested: 1 µg/ml)”; with human glypican-6 (GPC6) [12], “no binding (tested: 1 µg/ml)”; in the test with human glypican-2 (GPC2) [13], “no binding (tested: 1 µg/ml)”.

As usually defined, the Kd is the concentration at which binding is half-saturated.
